Experimental findings from US20200291075A1 (TRUSTEES OF PRINCETON UNIVERSITY, published 2020) are described below.

Assay [1] addresses T1, YFP-SH2 (human, UniProt P00519 112-232).
T1 construct: domain: SH2 domain; also called SH2-tagged YFP; EZ-L703
T1 sequence (looked up): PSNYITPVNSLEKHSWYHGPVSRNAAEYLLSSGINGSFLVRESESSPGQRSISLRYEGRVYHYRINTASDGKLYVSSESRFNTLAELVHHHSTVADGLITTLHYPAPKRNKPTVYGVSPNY
The assay can be described thus: BLI; His-tagged binder on Ni-NTA sensor, YFP-SH2 in solution; light conformation. In general terms: In BLI a coated tip is dipped into the sample, and binding shifts an interference pattern.
Protocol: (§1) Ni-NTA sensors (ForteBio) were first equilibrated using Buffer A for 10 minutes prior the measurement. A volume of 200 μL of Buffer A or protein solutions (previously dialyzed with Buffer A when needed) was added to clear, 96-well plates. During the experimental run, the Ni-NTA sensors were first immersed in Buffer A to record the baseline. […] The sensors were then transferred back into Buffer A to remove unbound protein. […] To measure the unbinding rate constant (koff), the sensors were then moved to wells containing Buffer A to trigger dissociation of YFP-SH2. To measure binding kinetics of the light state, the lid of the Octet remained open during the measurement and a blue LED panel was held above the 96-well plate, maintaining constant blue illumination for the duration of the experiment. […] The raw binding and unbinding data were simultaneously fit to models of the binding and unbinding reactions:

In assay [2] the target is T1, YFP-SH2. Put plainly: BLI; binder on Ni-NTA sensor, YFP-SH2 in solution; lit conformation, 450 nm light.
Protocol: as §1
For assay [3], the target named is T1, YFP-SH2. The assay can be described thus: BLI; binder on Ni-NTA sensor, YFP-SH2 in solution; lit conformation, ambient light.
Protocol: as §1
Assay [4] has as its target T1, YFP-SH2. Put plainly: BLI; lit-state against dark-state OptoMB variants.
Protocol: as §1
Assay [5] deals with T1, YFP-SH2. The assay can be described thus: LCAC in batch; His-tag bound OptoMB on Talon cobalt resin, target from crude E. coli lysate bound in the dark.
Protocol: (§2) After elution, beads were washed with imidazole to recover any remaining protein bound to the beads in order to estimate the capacity and yields of the resin.
(§3) The Resin was rotated in 50 mL conical tubes (covered with aluminum foil) at room temperature for 20 minutes and then poured in 20 mL BioRad glass Econo-Columns and washed with Buffer A (50 column volumes). […] The mixture was then vertically rotated gently for 45 minutes in 15 ml conical tubes.
Assay [6] has as its target T1, YFP-SH2. The assay can be described thus: LCAC in batch, Talon resin; share of the resin-bound target eluted by blue light.
Protocol: as §2, §3

B1: OptoMB (His6-tagged, wild-type AsLOV2) (designed binder)
chain: HHHHHHSSGENLYFQGHASGSSVSSVPTKLEVVAATPTSLLISWDAPMSSSSVYYYRITYGETGGNSPVQEFTVPYSGLERIEKNFVITDPRLPDNPIIFASDSFLQLTEYSREEILGRNCRFLQGPETDRATVRKIRDAIDNQTEVTVQLINYTKSGKKFWNLFHLQPMRDQKGDVQYFIGVQLDGTEHVRDAAEREGVMLIKKTAENIDEAAGSSTATISGLSPGVDYTITVYAWGEDSAGYMFMYSPISINYRTC
notes: also called OptoMB 1; OptoMB 2
As for B1, the koff (in general, the rate constant with which the complex falls apart) with YFP-SH2 [1] turned out to be 0.21 s⁻¹; with YFP-SH2 [2], 0.21 s⁻¹; with YFP-SH2 [3], 0.34 s⁻¹. Further, the kon in the assay with YFP-SH2 [1], with YFP-SH2 [2] and with YFP-SH2 [3] was < 1000 M⁻¹ s⁻¹ in each case. Moreover, the Kd with YFP-SH2 [2] and with YFP-SH2 [3] was > 100 µM throughout. Moreover, the “fold change of kon and koff, light against dark” value with YFP-SH2 [4] was ~20 fold. For the same molecule, the “Resin Capacity” value in the assay with YFP-SH2 [5] came out at 5.85 mg/mL. Further, the “Yield (% of recovery from the resin)” value with YFP-SH2 [6] turned out to be 17.8%.
